Source: the DeepSol protein solubility set

Assay: soluble on expression in E. coli; label from the status in PepcDB or PDB records

Question: Which “soluble on expression in E. coli” value does the source give for “AIAQSRKQLPITNAVIHPVVLLGIVDHYNRACKNTRKRAVGILLGTIDRRGHAEVLNSFAVPFEEDERNPTVFFFDHDYVENMAAMFRKVTARERIIGWYSTGPQIRPADMGVHEIVQGFCSSGHALYVICQVDPKETGLPTEAYVSLEEDSVALEGSAPGQPRRIFEHVPNSIGALEAEEVGTEHLLRDVRNWSVSTLTGEVRAKLDALQSLRARLENIRRYLEEVASGNLPLHQEILHALQLVLKGLPRNAASSELTQAFAVCSNEQTLLIYVATLLRSVLVLHDLVNNKTELLETERKMEVAFSNATTAMDAPGSPTVADSL” here?
Answer: soluble

Question: For “EVVVVGYGTMKRSDLTGSVASIAAKDVEGFKTSSVAGALGGQIAGVQITSTDGTPGAGFSINIRGVGTLTGDSSPLYIVDGFEVDDIDYLSNSDIESIEVLKDASSSAIYGARAANGVVLITTKSGK”, which “soluble on expression in E. coli” value is on record?
Answer: not soluble

Question: Which “soluble on expression in E. coli” value does the source give for “MGSDKIHHHHHHMLNWLRTLLGRVRADPDTIPETLWQHTLAQYPFLAQRAAAEQSQLRTLAGQFLAGKEFSGAQGLVVTDEMAVAIAAQACLPVLHLGLDYYDDFKGIVVHPGAMLARREVMDDSGVVHRYSEVLLGEAMERGPVTLSWQDVAAAGESASQGYNVVVHEFIHKIDMRDGTANGCPPLPSRTAREAWQAVMQPAYDDFREQVAMAERFGGAPPWLDSYAATSPAEFFAVTCEAYFVNRPRFAQDFAALAGLFDEYFRRNRLSTQ” here?
Answer: not soluble

Question: For “FGDFNYNTTFTATTNKNKIIQLARDVLNPVTNTLIDLTDIQVGRFRLREGGEIGTVYANEWLKRDGDNYIDYQPGQALTTETTSPYKLGSVNPKWNLGWQHGFSYKGFNLNLLFTARIGGIAISKTQAMLDRYGVSEASADARDAGGVSLGYFKVDPKTYYDAVSNLDAYYTYSATNVRLQEARLTYTFPNKWFKGTVNNLSLSVYGTNLWMIYNKAPYDPELTASTGTFGQGYDYFMLPSQSTYGLSLKFGF”, which “soluble on expression in E. coli” value is on record?
Answer: not soluble

Question: With “NATNRRDTVLAAMVDAGKLTKSQAKEAASIGMKNRLADTYAGKINDYRYPSYFDAVVNEAIDTYGISEKDIVNNGY” as the sequence, how does the “soluble on expression in E. coli” value read?
Answer: not soluble

Question: With “MGSDKIHHHHHHMSLDLSTPLQLIGRSVEFQRVVEVLAQDGDLLITGVPGSGRRTLVRWGVTEVRAIALDIDCIRATDGERFLQLLTEAINQNWQAEKIQSWLDKNAKEFFTFHPETKLKLLRSLSQKQIWQAFELLLELPQIMAVDLNKRLVLILQSFPHIRSWDRNGLWEISFRRKIKEHTHVSYVLIATIAETGNYSDENNYPLETIQLPPLNRDVLAVWAREILHGSKLTFDSRSKALQLFLDAVQGHIGDAMAIIRRLQTLCVPDSLVTENDVQQAIEGLLKDLSMTYESLLMLLPANQVHLLECLALDPTEKPQSKDYIQKHGLSRGGSLQGALTGLHHKGLIYGAEQGYLLAMPLLALWLRQRLS” as the sequence, how does the “soluble on expression in E. coli” value read?
Answer: not soluble

Question: With “MGSDKIHHHHHHMMKKIEEARTFISERTNLSPDILIILGSGFGPFIEKVEDPVIIDYKDIPHFPQPTVEGHSGKLVFGRISDKPVMIMAGRFHLYEGHDPATVAFPVYLAKYVGVKGVVVTNAAGAINPEFKPGEIILVRDIINFMFRNPLRGPNDEKIGPRFPDMSSVVDPEWARKIQERLSLKEGVYIGVLGPSYETPAEIRVFEKLGADLVGMSTVPEVIAAKHCGLKVVVFSCVTNMAAGITHGRLSHEEVVRTTKMAQGKIEKALTTAVEVF” as the sequence, how does the “soluble on expression in E. coli” value read?
Answer: soluble

Question: For “MKLSKRQEQIIAVVKEHQPVSGERISDILAVSRATLRSDLSFLTLSGILKASPKVGYTYESDNMEAFFFFDVFQTKVQEIMSPPLMVAQDTSIRDAITNLFMYDVGSLYVMDEAKELLGVLSRKDLLRASLNTNIDGTPVAVCMTRVPHVKTCTPEFTILEAADTLQKYEVDSLPVVEKENPKKVIGKITKTKILTYITQQAKEAAQNR”, which “soluble on expression in E. coli” value is on record?
Answer: not soluble

Question: For “MGSDKIHHHHHHMLKQLYLTVLRWRPYKHKKVKIVYIMSFPRNDGHLIEQLEQHYHGMIIVLYTKNCQSYAASLNQKGIKTILFDKKTLLITTAISYLKSAPLIFVDNYFPELAILKKKQVVIQLWHANGALKQFGWGAYHTKHRSSKDQIRFQKVYDKMNYFIVNSLKMEAIFRNNYRLENAQFCHFGSPRLAYLEKLEVGETNQNNKVLYAPTYREGMNEMMLVINQAIKAFSAMPNFHFYMKLHPSIQLDAIELPRNVSIWEKHIFESFSEIGYLITDYSSVVFEYMHVKEQPNILFFCPDLEKYALNPGIEPDFFEYLPGPLVENEKQLIVALSNFSINSYKDNITRINEEWNQYQSKETINKIVELVERILGGFCEK”, which “soluble on expression in E. coli” value is on record?
Answer: not soluble

Question: Which “soluble on expression in E. coli” value does the source give for “PDVSALDEVVVEAYGSKTRKITTTGAVTSVDVATLQTPATSLANMLGGRVAGIISTQGSGEPGKNISDFWIRGIGTFGANASALVLIDGLEGSLNDVDPADIESFSVLKDASATAMYGVRGANGVVLVTTKRGKQEK” here?
Answer: not soluble

Question: Which “soluble on expression in E. coli” value does the source give for “MSLSNKIVLTSPDRKTTRLLEKVRKEYDFKIDAYEATFDDAVELIRGKVAHREHWDPIIATGGATLGLLRDNLGRMPWVNIFPTEYDLVIALEQAKKTKKTIGLFNPGQIDTEAIKAVCSAIQIDAHIYRYNSWKEVLVQVEKAYQDGVEVAIGAGEKISSAVERKNIQYVSVTSGEYTIRRAFKYAQLLVDLKRNEKVSHEEGHHHHHH” here?
Answer: not soluble

Question: For “MNKVWLTGLLTATASGVFSASTLAATEITWWHAMGGQLGETVNQLATDFNASQSDYKLTPVYKGSYTETLTAGIAAFRAGQAPNILQVFDAGAATIMSSKGVAKPVQDLMIESGYPFTAQDYIAGVRNFYADNTGKMVGMPFNSSTPVLYYNKDMLASVNAQAPQTYEQLEQVAAKLAEKGQAGFAQSLTPWIMFENFKSRHNLPLSDKQNGYQDLSTKIMFNSDDMLMHVKKLKEWSDKGYYKYYGSDWDANQTPFERGEVAMWMGSSGSFGGLRNRVKFNLGTTYLPYWESVTKNPTHTFIGGAALFALQGHTPAQDKGVAAFFAYLTKPETQMNWHKTTGYVPVTNAAYDLTKQSGYYQENPDAEVGVKQLSLPDGEWTKGYRLGYYPQVREVMHREFDNIFSGRSTVESSLNKVEDESAKLLNRFARTVQ”, which “soluble on expression in E. coli” value is on record?
Answer: not soluble

Question: With “MDRLQLYESKKLRRETPLSPLLRIFAGQSVHNHRPMYFRDVAGLEDLKTYLRRTAQTRQIAHAQLFAGEEGGGAFPLALAYARYLNCQMPTDTDACGHCPSCVKYDALAHPDLFFVYPVVNASSSPAPSDDYIRQWREMLGSESYFTPADWLEYIKAGNSQPIIYSKEAEAVEQKLSFRIYEASYRVVMIWQPERMNEAMANKLLKLIEEPPEHTLFFMISSEPDKVLGTIRSRTQLINVRLLHEIEIVEALSRNNQGNTADIIRIAHLAEGNYRRAMDLYRGEWADRDNFVLMGRMMGSIIKGDPSKMRPVADELAALGRVSQIGFLTYCLRLFRELYISRVGVAKLNYLSPEEESFVDMLSGGITGQNIRPVMEEVELAIRHIRQNGNGRMIFFDLLLRLTAALAPALRAKGLK” as the sequence, how does the “soluble on expression in E. coli” value read?
Answer: not soluble

Question: For “MVDGNYSVASNVMVPMRDGVRLAVDLYRPDADGPVPVLLVRNPYDKFDVFAWSTQSTNWLEFVRDGYAVVIQDTRGLFASEGEFVPHVDDEADAEDTLSWILEQAWCDGNVGMFGVSYLGVTQWQAAVSGVGGLKAIAPSMASADLYRAPWYGPGGALSVEALLGWSAKIGTGLITSRSDARPEDAADFVQLAAILNDVAGAASVTPLAEQPLLGRLIPWVIDQVVDHPDNDESWQSISLFERLGGLATPALITAGWYDGFVGESLRTFVAVKDNADARLVVGPWSHSNLTGRNADRKFGIAATYPIQEATTMHKAFFDRHLRGETDALAGVPKVRLFVMGIDEWRDETDWPLPDTAYTPFYLGGSGAANTSTGGGTLSTSISGTESADTYLYDPADPVPSLGGTLLFHNGDNGPADQRPIHDRDDVLCYSTEVLTDPVEVTGTVSARLFVSSSAVDTDFTAKLVDVFPDGRAIALCDGIVRMRYRETLVNPTLIEAGEIYEVAIDMLATSNVFLPGHRIMVQVSSSNFPKYDRNSNTGGVIAREQLEEMCTAVNRIHRGPEHPSHIVLPIIKRKLAAALEHHHHHH”, which “soluble on expression in E. coli” value is on record?
Answer: soluble

Question: Which “soluble on expression in E. coli” value does the source give for “MDAVDATMEKLRAQCLSRGASGIQGLARFFRQLDRDGSRSLDADEFRQGLAKLGLVLDQAEAEGVCRKWDRNGSGTLDLEEFLRALRPPMSQAREAVIAAAFAKLDRSGDGVVTVDDLRGVYSGRAHPKVRSGEWTEDEVLRRFLDNFDSSEKDGQVTLAEFQDYYSGVSASMNTDEEFVAMMTSAWQL” here?
Answer: not soluble
